Measured values reported in the supplement of paper PMC9170038.

Columns and labels:
MS2 coat protein [1] = experiment: apparent KD of MS2 coat protein, switch ON state; designed switch direction (-1 OFF switch, 1 ON switch): -1; higher = weaker reporter binding; conditions: FMN input: 0 or 200 uM; Eterna round: R93 (includes R88 designs)
Procedure, shortened: (§1)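 Designed RNA switches were transcribed on-chip from Illumina sequencing clusters. They were then titrated with SNAP-549-labelled MS2 coat protein (twofold steps, 0.7 or 1.5 nM to 3 µM; 0.8–1.5 h to 10–20 min per step) in 100 mM Tris-HCl pH 7.5, 80 mM KCl, 4 mM MgCl2, without or with constant ligand. Apparent KD is the per-design median of normalised cluster binding-curve fits.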

MS2 coat protein [2] = experiment: apparent KD of MS2 coat protein, switch OFF state (with FMN for OFF switches, without FMN for ON switches); designed switch direction (-1 OFF switch, 1 ON switch): -1; higher = weaker reporter binding; conditions: FMN input: 0 or 200 uM; Eterna round: R93 (includes R88 designs)
Procedure, shortened: as §1

In the case of “AGUCUGAGAGGAUAUACAUGAAAAAAAAAAGUAAGAUCCCUACAUGAGGAUCACCCAUGUAGAAGGCUCUGACA [Ex2 Design 145: Sub-opt 9]”, the “apparent KD of MS2 coat protein” value (MS2 coat protein [1]) is reported as 31.4 nM and the “apparent KD of MS2 coat protein” value (MS2 coat protein [2]) is reported as 29.4 nM.
In the case of “CAAAAGCUAGGAUAUGCUAAUUGUUCCUUAAGUCAAAAUAAACAUGAGGAUCACCCAUGUAGAAGGAGCCCACA [Tegean]”, the “apparent KD of MS2 coat protein” value (MS2 coat protein [1]) is reported as 31.5 nM and the “apparent KD of MS2 coat protein” value (MS2 coat protein [2]) is reported as 16.9 nM.
For “AACAGUACAGGAUAUACAUGAGGAUCACCCAUGUGAAAGAAAAGUGGCGUACCACAAAGUAGAAGGGUACUGGA [Mat - Exclusion 3 - JL mod - D23]”, the “apparent KD of MS2 coat protein” value (MS2 coat protein [1]) was 26.9 nM and the “apparent KD of MS2 coat protein” value (MS2 coat protein [2]) was 122 nM.
For “UCCGGACAUGAGGAUCACCCAUGUGAGGAUAUAUAAAGUGGGACUGGAAACAGUCCCAAUAGAAGGCACAUGAA [Celaar]”, the “apparent KD of MS2 coat protein” value (MS2 coat protein [1]) was 21.2 nM and the “apparent KD of MS2 coat protein” value (MS2 coat protein [2]) was 19.6 nM.
“ACAGUUAGAGGAUAUACGUGGAAAAAUAAAAAUAAAAAACUACAUGAGGAUCACCCAUGUAGAAGGCUAACUGA [Ex2 Design 196: Random 12E]” was tested, and the “apparent KD of MS2 coat protein” value (MS2 coat protein [1]) was 24.8 nM and the “apparent KD of MS2 coat protein” value (MS2 coat protein [2]) was 66.1 nM.
“AAGUUAUUAGGAUAUACUAGUGCGAUUAAUACGCUGAUAGUACAUGAGGAUCACCCAUGUAGAAGGAAUAAAAA [JR_Exc002_Sub409]” was tested, and the “apparent KD of MS2 coat protein” value (MS2 coat protein [1]) was 35.1 nM and the “apparent KD of MS2 coat protein” value (MS2 coat protein [2]) was 19.1 nM.
In the case of “AAGUACUCAGGAUAUACAUGAGGAUCACCCAUGUGAAAAAAGCGUAAAAAACGCACAUGUAGAAGGGAGUACAA [JL In thr Red Again]”, the “apparent KD of MS2 coat protein” value (MS2 coat protein [1]) is reported as 122 nM and the “apparent KD of MS2 coat protein” value (MS2 coat protein [2]) is reported as 333 nM.
With “AAAAAGUCAGGAUAUGUGGAAAAAAUAAAAAAAAUAAAAACACAGAAGGGACAUGAGGAUCACCCAUGUUAAAA [Ex 4 May 18]” the “apparent KD of MS2 coat protein” value (MS2 coat protein [1]) was 45.4 nM and the “apparent KD of MS2 coat protein” value (MS2 coat protein [2]) was 35.1 nM.
For “AGCUAGUCAGGAUAUACGAAAAUGCUAGAAGACGUAAGGGAACAUGAGGAUCACCCAUGUAGAAGGGACUAGCA [Diamond 46]”, the “apparent KD of MS2 coat protein” value (MS2 coat protein [1]) was 21.9 nM and the “apparent KD of MS2 coat protein” value (MS2 coat protein [2]) was 30.4 nM.
“AACAGGACAGGAUAUACAUGAGGAUCACCCAUGUGAGAAUUAAGUAGAUUACCACAGAGUAGAAGGGUCCUGGA [Ruby 96]” was tested, and the “apparent KD of MS2 coat protein” value (MS2 coat protein [1]) was 47.7 nM and the “apparent KD of MS2 coat protein” value (MS2 coat protein [2]) was 99.5 nM.
In the case of “AUAAAGUGAGGAUAUGCUAAUAAAUAAAUAGACAAAUAAAUGCAGAAGGCACAUGAGGAUCACCCAUGUAAGAA [Ex 4 Tesla 3]”, the “apparent KD of MS2 coat protein” value (MS2 coat protein [1]) is reported as 28.4 nM and the “apparent KD of MS2 coat protein” value (MS2 coat protein [2]) is reported as 28.9 nM.
For “AAAAAACAUGAGGAUCACCCAUGUGAGGAUAUGACUUAAAUAAAGAAAGAAGAAAUAGUCAGAAGGCACAAAUA [Mat - Mod of Nando]”, the “apparent KD of MS2 coat protein” value (MS2 coat protein [1]) was 28.6 nM and the “apparent KD of MS2 coat protein” value (MS2 coat protein [2]) was 42.9 nM.
“AAAAAACAUGAGGAUCACCCAUGUCAGGAUAUGCCAACCUAAAAAAAAAAAAAAAAACGUAGAAGGGACAAAAA [Bilbo Confounded 2 - Jieux - Exclusion 1]” was tested, and the “apparent KD of MS2 coat protein” value (MS2 coat protein [1]) was 28.7 nM and the “apparent KD of MS2 coat protein” value (MS2 coat protein [2]) was 23.5 nM.
In the case of “AAGAAGACAGGAUAUACAUGAAAGAAAGAAAAGAAAAGAAAACAUGAGGAUCACCCAUGUAGAAGGGUCAAGAA [EteRNA is fun!]”, the “apparent KD of MS2 coat protein” value (MS2 coat protein [1]) is reported as 23.5 nM and the “apparent KD of MS2 coat protein” value (MS2 coat protein [2]) is reported as 34.9 nM.
For “UCCUGACAUGAGGAUCACCCAUGUCAGGAUAUAGUAUGAAAAAAAAAAAAAAAAAAUACUAGAAGGGACAAGGG [Design 13: Super Stable Short Helix 4]”, the “apparent KD of MS2 coat protein” value (MS2 coat protein [1]) was 18.5 nM and the “apparent KD of MS2 coat protein” value (MS2 coat protein [2]) was 26.8 nM.
“GGUUGGCGAGGAUAUACAUGAGGAUCACCCAUGUGAGAGUAAAAAGUGAGAAAGAAAAGUAGAAGGCGCUGACG [salish99-ex3-46]” was tested, and the “apparent KD of MS2 coat protein” value (MS2 coat protein [1]) was 27.1 nM and the “apparent KD of MS2 coat protein” value (MS2 coat protein [2]) was 85.1 nM.
For “GAUAGUGAAGGAUAUACUGGAGGAGUGCGAUAGAAGAAAGAACAUGAGGAUCACCCAUGUAGAAGGUCAGAAGU [JR_Exc002_Sub1225]”, the “apparent KD of MS2 coat protein” value (MS2 coat protein [1]) was 32.3 nM and the “apparent KD of MS2 coat protein” value (MS2 coat protein [2]) was 27.2 nM.
For “AAAAUGUGAGGAUAUGUACGAAAAAAUAAAAAAAUAAAAGUACAGAAGGCACAUGAGGAUCACCCAUGUGAAAA [EX4 396: Minimal 9]”, the “apparent KD of MS2 coat protein” value (MS2 coat protein [1]) was 28.3 nM and the “apparent KD of MS2 coat protein” value (MS2 coat protein [2]) was 79.1 nM.
In the case of “AAUAAGUGAGGAUAUGUAAAUAGUAGAUAAGAUUCCCUAAAACAGAAGGCACAUGAGGAUCACCCAUGUAAAUA [JR_Exc004_Sub007]”, the “apparent KD of MS2 coat protein” value (MS2 coat protein [1]) is reported as 25.9 nM and the “apparent KD of MS2 coat protein” value (MS2 coat protein [2]) is reported as 19.7 nM.
